According to patent WO2018007922A2 (dated 2018):

Biological target: recombinant human TTR F87M/L110M (human, UniProt P02766 21-147)
Experiment: Biacore SPR, mAb captured on anti-human chip, TTR F87M/L110M as analyte

B1: Hu9D5 H4L1 (antibody, V domains shown)
VH: EVQLVESGGGLVQPGGSLRLSCAASGFTFSSYTMSWVRQAPGKGLEWVSEISNSGDTTYYPDTVKGRFTISRDNAKNSLYLQSNLLRAEDTAVYYCARHYYYGGGYGGWFFDVWGQGTTVTVSS
VL: DIVMTQSPLSLPVTPGEPASISCRSSKSLLHSNGNTYLYWFLQKPGQSPQLLIYRVSNLASGVPDRFSGSGSGTDFTLKISRVEAEDVGVYYCMQHLEYPLTFGQGTKLEIK
notes: not tied by words to the tested antibody; also called humanized 9D5 VHv4/VLv1
- Kd: 2.09 nM
